Patent publication US20260185069

How the values were obtained:
[1] = tested on: T1, Dn29 large serine recombinase (Desulfotomaculum nigrificans); assay: cell_activity; settings: HEK293FT, unfused LSR, UMI integration-site mapping
T1 sequence: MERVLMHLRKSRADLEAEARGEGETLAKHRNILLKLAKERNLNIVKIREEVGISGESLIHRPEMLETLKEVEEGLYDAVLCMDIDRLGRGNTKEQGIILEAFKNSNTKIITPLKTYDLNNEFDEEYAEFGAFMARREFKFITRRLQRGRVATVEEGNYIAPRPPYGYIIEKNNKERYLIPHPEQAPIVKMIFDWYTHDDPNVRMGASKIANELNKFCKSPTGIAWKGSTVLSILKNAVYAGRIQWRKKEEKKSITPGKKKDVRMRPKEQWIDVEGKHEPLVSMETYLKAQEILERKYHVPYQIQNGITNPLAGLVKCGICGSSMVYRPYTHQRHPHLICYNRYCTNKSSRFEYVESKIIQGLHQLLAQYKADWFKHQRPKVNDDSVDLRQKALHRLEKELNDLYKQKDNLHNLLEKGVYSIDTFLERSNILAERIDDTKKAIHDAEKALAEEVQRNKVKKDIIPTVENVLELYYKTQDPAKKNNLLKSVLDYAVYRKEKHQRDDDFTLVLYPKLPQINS

[2] = molecular target: Dn29-XTEN32-(GGSS)2-dCas9 fusion (synthetic construct) (UniProt Q99ZW2); assay: cell_activity; settings: HEK293FT, attD donor plasmid, single gRNA near attH1, ddPCR; specificity about 78% of UMIs with guide 3

Dn29 attH1 pseudosite (chr10:21,130,404, NEBL intron)
activity (% of integrations at site) [1]: 30 | activity (% integration) [2]: < 30
